Test results taken from patent US5760204.

Legend:
[1] = biological target: murine interleukin 5 receptor encoded by pIL-5R.8 (membrane bound, low affinity IL-5R) (mouse); assay: Scatchard analysis, 35S-labeled IL-5 on COS7 cells transfected with pCAGGS.5R.8
[2] = biological target: human interleukin 5 receptor HSIL5R (human); assay: Scatchard analysis, 35S-labeled mouse IL-5 on COS7 cells transfected with pCAGGS.HSIL5R
[3] = biological target: low affinity IL-5R on Y16 cells (mouse) (UniProt P21183); assay: Scatchard analysis, 35S-labeled IL-5 on Y16 cells, low affinity sites
[4] = biological target: murine interleukin 5 receptor encoded by pIL-5R.8 (membrane bound, low affinity IL-5R) (mouse); assay: Scatchard analysis, 35S-labeled IL-5 on COS7 cells transfected with pIL-5R.8 (CDM8 vector)
[5] = biological target: high affinity IL-5R on Y16 cells (mouse) (UniProt P21183); assay: Scatchard analysis, 35S-labeled IL-5 on Y16 cells, high affinity sites
[6] = biological target: human interleukin 5 receptor 2 HSIL5R2 (human); assay: Scatchard analysis, 35S-labeled mouse IL-5 on COS7 cells transfected with pCAGGS.HSIL5R2
[7] = biological target: human interleukin 5 receptor HSIL5R (human); assay: Scatchard analysis, 125I-labeled human IL-5 on COS7 cells transfected with pCAGGS.HSIL5R
[8] = biological target: human interleukin 5 receptor 2 HSIL5R2 (human); assay: Scatchard analysis, 125I-labeled human IL-5 on COS7 cells transfected with pCAGGS.HSIL5R2

Substance | Kd [1] [nM] | Kd [2] [nM] | Kd [3] [nM] | Kd [4] [nM] | Kd [5] [nM] | Kd [6] [nM] | Kd [7] [nM] | Kd [8] [nM]
murine interleukin 5 (from UniProt P04401) (ligand) | 9.6 | 0.25 | 5.1 | 2 | 0.02 | 0.355 | – | –
human interleukin 5 (from UniProt P05113) (ligand) | – | – | – | – | – | – | 0.59 | 0.41
